{
  "source": "paper PMC5424706",
  "about": "(Molecular cell, 2017)",
  "molecules": {"B1": {"name": "MgtC-FLAG, in vitro synthesized (natural protein)", "chain": "MEERMLMFPYILNLLAAMLLGALIGAERQWRQRMAGLRTNALVATGAAVFILSSMTTSPDSPGRIAAQIVSGIGFLGAGVIMREGMNVRGLNTAATLWCSAGIGVLCGLGQFKNALAATIIILCANILLREAAQRINQLPISAEGEKRYILKVTCNKEDESAVRQWLLNIVKEAAICLQGLGSVPAQEQGYKEIRAELVGHADYRKTRELIISRIGDNDNITAIHWSIDSQ"}},
  "key": {"[1]": {"molecular_target": "PhoP-HA protein, purified (Salmonella enterica serovar Typhimurium (strain 14028s)) (UniProt D0ZV90)", "experiment": "pull-down"}, "[2]": {"molecular_target": "T1, PhoP-HA protein, purified (Salmonella enterica serovar Typhimurium …, UniProt D0ZV90 1-224)", "T1 sequence": "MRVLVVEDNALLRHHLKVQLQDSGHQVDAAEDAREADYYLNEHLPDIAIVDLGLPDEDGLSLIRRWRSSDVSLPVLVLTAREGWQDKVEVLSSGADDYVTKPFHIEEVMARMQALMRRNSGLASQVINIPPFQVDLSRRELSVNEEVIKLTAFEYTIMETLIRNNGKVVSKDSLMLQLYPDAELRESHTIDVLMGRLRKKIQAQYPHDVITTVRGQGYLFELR", "experiment": "pull-down"}},
  "data": [
    {"molecule": "ClpS-FLAG, in vitro synthesized (natural protein)", "values": [
      {"measurement": "IC50", "setting": "[1]", "result": 14.6, "unit": "µM"}
    ]},
    {"molecule": "B1", "values": [
      {"measurement": "IC50", "setting": "[2]", "result": 8.4, "unit": "µM"}
    ]}
  ]
}
